The target in one assay is Miro1^P13V ΔTM (UniProt Q8IXI2). In words: mass photometry.
For a further assay, the target named is Miro1^P13V-Strep (UniProt Q8IXI2). As to the kind of experiment: pull-down.

Values joined by “and” are separate entries in the source; they are usually repeats but may differ in a detail not shown here. Identical values can stand only once.

This is an account of results in article doi:10.1101/2022.10.25.513744.

UniProt Q8IXI2, sequence (Q8IXI2 whole entry P13V): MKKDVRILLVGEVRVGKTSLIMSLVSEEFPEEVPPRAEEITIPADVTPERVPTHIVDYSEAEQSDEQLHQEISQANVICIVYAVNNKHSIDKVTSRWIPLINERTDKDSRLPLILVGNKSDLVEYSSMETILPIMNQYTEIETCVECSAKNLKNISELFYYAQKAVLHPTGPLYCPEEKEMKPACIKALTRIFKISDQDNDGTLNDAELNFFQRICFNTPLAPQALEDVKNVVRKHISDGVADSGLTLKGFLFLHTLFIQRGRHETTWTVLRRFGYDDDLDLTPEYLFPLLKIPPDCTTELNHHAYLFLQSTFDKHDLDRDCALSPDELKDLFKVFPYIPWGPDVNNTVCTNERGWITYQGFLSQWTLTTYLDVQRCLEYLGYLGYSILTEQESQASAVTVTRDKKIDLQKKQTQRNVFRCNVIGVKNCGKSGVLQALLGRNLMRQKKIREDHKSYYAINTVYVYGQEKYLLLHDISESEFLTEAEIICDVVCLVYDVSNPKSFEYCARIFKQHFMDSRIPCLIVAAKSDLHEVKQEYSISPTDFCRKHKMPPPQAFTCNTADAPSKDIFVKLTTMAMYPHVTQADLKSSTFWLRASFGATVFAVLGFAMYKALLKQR

Regarding “Miro1^P13V ΔTM (from UniProt Q8IXI2 1-618) (domain or fragment)”, in the assay with Miro1^P13V ΔTM, the percent forming dimers was found to be 3%; the stoichiometry N is 3 and 4.

B1: TRAK1^562-635 (domain or fragment)
chain: MSFSSRSYLPEKLQIVKPLEGSATLHHWQQLAQPHLGGILDPRPGVVTKGFRTLDVDLDEVYCLNDFEEDDTGD
For the molecule B1, the reduction of the TRAK1:Miro1-Strep band intensity against Miro1^WT with Miro1^P13V-Strep was 30%.

One may read the stoichiometry N as a count of units in the complex or per binding partner.
